Results taken from patent US20210246166A1 (Bayer, published 2021).
Numbered stars: 1 amine (or outer) side, 2 acyl side, 3 side chain; on linkers, the order of the positions; unused ones are H or OH. Bridge positions count the residues as written; N and C are the ends. Square brackets hold non-standard residues; d marks the D form. Ends that are not written are not given here. X13 = (2S)‑2‑amino‑3‑(1-methylcyclopropyl)propanoic acid, CC1(C[C@H](N[*:1])C(=O)[*:2])CC1; Pro(cis-4-CF3) = O=C(O)[C@@H]1C[C@H](C(F)(F)F)CN1; Oic = O=C(O)[C@@H]1C[C@@H]2CCCC[C@@H]2N1; PEG8 = NCCOCCOCCOCCOCCOCCOCCOCCOCCC(=O)O; tBuAla = CC(C)(C)C[C@H](N)C(=O)O; PEG4 = NCCOCCOCCOCCOCCC(=O)O; Pen = CC(C)(S)[C@H](N)C(=O)O; Tranexamic = tranexamic acid; 4Amb = NCc1ccc(C(=O)O)cc1; NMeC = CN[C@@H](CS)C(=O)O; Nva = CCC[C@H](N)C(=O)O; Ac4c = NC1(C(=O)O)CCC1; PEG2 = NCCOCCOCCC(=O)O; Sar = CNCC(=O)O

T1: recombinant rat MASP1 active protease (amino acids 302-704, C-terminal His Tag) (rat, UniProt Q8CHN8 302-704)
T1 sequence: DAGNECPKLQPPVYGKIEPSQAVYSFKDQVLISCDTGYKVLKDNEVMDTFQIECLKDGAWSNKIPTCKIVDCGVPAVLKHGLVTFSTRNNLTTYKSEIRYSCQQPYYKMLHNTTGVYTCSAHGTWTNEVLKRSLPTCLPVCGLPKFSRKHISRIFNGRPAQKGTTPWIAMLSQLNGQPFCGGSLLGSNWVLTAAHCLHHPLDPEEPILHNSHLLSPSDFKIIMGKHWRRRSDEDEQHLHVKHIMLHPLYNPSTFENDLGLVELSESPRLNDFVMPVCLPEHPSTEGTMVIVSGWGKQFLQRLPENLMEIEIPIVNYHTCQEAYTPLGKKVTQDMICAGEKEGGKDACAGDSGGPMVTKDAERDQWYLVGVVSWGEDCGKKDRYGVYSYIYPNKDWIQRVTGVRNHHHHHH


What was measured:
[1] = target: T1, recombinant rat MASP1 active protease …; experiment: cell-based or functional assay
[2] = target: recombinant rat MASP2 active protease (amino acids 296-685, C-terminal His Tag) (rat, UniProt Q9JJS8 296-685); experiment: cell-based or functional assay
recombinant rat MASP2 active protease (amino acids 296-685, C-terminal His Tag), sequence (Q9JJS8 other isoform, or with tags, fused parts or gaps limits assumed): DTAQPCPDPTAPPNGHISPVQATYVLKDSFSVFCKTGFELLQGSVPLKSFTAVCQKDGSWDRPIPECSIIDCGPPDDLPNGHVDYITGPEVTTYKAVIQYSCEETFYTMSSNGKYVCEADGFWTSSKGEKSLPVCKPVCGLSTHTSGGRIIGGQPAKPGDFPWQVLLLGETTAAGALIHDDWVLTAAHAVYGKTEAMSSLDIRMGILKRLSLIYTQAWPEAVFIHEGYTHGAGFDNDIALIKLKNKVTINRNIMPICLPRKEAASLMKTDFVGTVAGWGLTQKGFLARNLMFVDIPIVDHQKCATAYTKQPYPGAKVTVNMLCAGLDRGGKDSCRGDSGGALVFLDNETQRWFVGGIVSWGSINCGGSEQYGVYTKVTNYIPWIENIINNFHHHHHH

Binder | rat MASP1 IC50 [1] | rat MASP2 IC50 [2]
AICSRS[tBuAla]P[Pro(cis-4-CF3)]ICIPD-NH2 (disulfide 3-11; N-terminus assumed; SMILES CC[C@H](C)[C@H](NC(=O)[C@H](C)N)C(=O)N[C@H]1CSSC[C@@H](C(=O)N[C@H](C(=O)N2CCC[C@H]2C(=O)N[C@@H](CC(=O)O)C(N)=O)[C@@H](C)CC)NC(=O)[C@H]([C@@H](C)CC)NC(=O)[C@@H]2C[C@H](C(F)(F)F)CN2C(=O)[C@@H]2CCCN2C(=O)[C@H](CC(C)(C)C)NC(=O)[C@H](CO)NC(=O)[C@H](CCCNC(=N)N)NC(=O)[C@H](CO)NC1=O) [Example 158: AIC+SRS-((tBu)A)-P-((4-CF3)P)-IC+IPD-NH2] | 247 nM | 420 nM
[Sar]ICSRSLP[Oic]I[Pen]IP[PEG8]-NH2 (disulfide 3-11; N-terminus assumed; SMILES CC[C@H](C)[C@H](NC(=O)CNC)C(=O)N[C@H]1CSSC(C)(C)[C@@H](C(=O)N[C@H](C(=O)N2CCC[C@H]2C(=O)NCCOCCOCCOCCOCCOCCOCCOCCOCCC(N)=O)[C@@H](C)CC)NC(=O)[C@H]([C@@H](C)CC)NC(=O)[C@@H]2C[C@@H]3CCCC[C@@H]3N2C(=O)[C@@H]2CCCN2C(=O)[C@H](CC(C)C)NC(=O)[C@H](CO)NC(=O)[C@H](CCCNC(=N)N)NC(=O)[C@H](CO)NC1=O) [Example 168: ((N-Me)G)-IC+SRSLP-(Oic)-I-(Pen)+IP-(PEG8(28 atoms))-NH2] | 140 nM | 53 nM
AICSRSLPPI[Pen]IPD-NH2 (disulfide 3-11; N-terminus assumed; SMILES CC[C@H](C)[C@H](NC(=O)[C@H](C)N)C(=O)N[C@H]1CSSC(C)(C)[C@@H](C(=O)N[C@H](C(=O)N2CCC[C@H]2C(=O)N[C@@H](CC(=O)O)C(N)=O)[C@@H](C)CC)NC(=O)[C@H]([C@@H](C)CC)NC(=O)[C@@H]2CCCN2C(=O)[C@@H]2CCCN2C(=O)[C@H](CC(C)C)NC(=O)[C@H](CO)NC(=O)[C@H](CCCNC(=N)N)NC(=O)[C@H](CO)NC1=O) [Example 170: AIC+SRSLPPI-(Pen)+IPD-NH2] | 54 nM | 9.82 nM
AICSRS[tBuAla]PPI[Pen]IP[Tranexamic]-NH2 (disulfide 3-11) [Example 171: AIC+SRS-((tBu)A)-PPI-(Pen)+IP-(Tranexamic)-NH2] | 42 nM | 21 nM
[Sar]ICSRS[tBuAla]PPI[Pen]IP[PEG4]-NH2 (disulfide 3-11; N-terminus assumed; SMILES CC[C@H](C)[C@H](NC(=O)CNC)C(=O)N[C@H]1CSSC(C)(C)[C@@H](C(=O)N[C@H](C(=O)N2CCC[C@H]2C(=O)NCCOCCOCCOCCOCCC(N)=O)[C@@H](C)CC)NC(=O)[C@H]([C@@H](C)CC)NC(=O)[C@@H]2CCCN2C(=O)[C@@H]2CCCN2C(=O)[C@H](CC(C)(C)C)NC(=O)[C@H](CO)NC(=O)[C@H](CCCNC(=N)N)NC(=O)[C@H](CO)NC1=O) [Example 174: ((N-Me)G)-IC+SRS-((tBu)A)-PPI-(Pen)+IP-(PEG3(16atoms))-NH2] | 65.6 nM | 35.1 nM
AICSRSLP[Oic]I[NMeC]IPD-NH2 (disulfide 3-11; N-terminus assumed; SMILES CC[C@H](C)[C@H](NC(=O)[C@H](C)N)C(=O)N[C@H]1CSSC[C@@H](C(=O)N[C@H](C(=O)N2CCC[C@H]2C(=O)N[C@@H](CC(=O)O)C(N)=O)[C@@H](C)CC)N(C)C(=O)[C@H]([C@@H](C)CC)NC(=O)[C@@H]2C[C@@H]3CCCC[C@@H]3N2C(=O)[C@@H]2CCCN2C(=O)[C@H](CC(C)C)NC(=O)[C@H](CO)NC(=O)[C@H](CCCNC(=N)N)NC(=O)[C@H](CO)NC1=O) [Example 185: AIC+SRSLP-(Oic)-I-((N-Me)C)+IPD-NH2] | 57 nM | 10.9 nM
[4Amb]ICSRS[tBuAla]PPI[Pen]IPD-NH2 (disulfide 3-11; N-terminus assumed; SMILES CC[C@H](C)[C@H](NC(=O)c1ccc(CN)cc1)C(=O)N[C@H]1CSSC(C)(C)[C@@H](C(=O)N[C@H](C(=O)N2CCC[C@H]2C(=O)N[C@@H](CC(=O)O)C(N)=O)[C@@H](C)CC)NC(=O)[C@H]([C@@H](C)CC)NC(=O)[C@@H]2CCCN2C(=O)[C@@H]2CCCN2C(=O)[C@H](CC(C)(C)C)NC(=O)[C@H](CO)NC(=O)[C@H](CCCNC(=N)N)NC(=O)[C@H](CO)NC1=O) [Example 187: (4-(Aminomethyl)benzoic acid)-IC+SRS-((tBu)A)-PPI-(Pen)+IPD-NH2] | 77 nM | 3.7 nM
[Sar]ICSRSLP[Oic]I[Pen]I[5‑Azaspiro(2.4)heptane‑1‑carboxylic acid]-OH (disulfide 3-11) [Example 194: ((N-Me)G)-IC+SRSLP-(Oic)-I-(Pen)+I-((5-Azaspiro[2.4]heptane-1-carboxylic acid)-OH] | 70 nM | 42 nM
[Sar]ICSRS[X13]PPI[Pen]IP-NH2 (disulfide 3-11; N-terminus assumed; SMILES CC[C@H](C)[C@H](NC(=O)CNC)C(=O)N[C@H]1CSSC(C)(C)[C@@H](C(=O)N[C@H](C(=O)N2CCC[C@H]2C(N)=O)[C@@H](C)CC)NC(=O)[C@H]([C@@H](C)CC)NC(=O)[C@@H]2CCCN2C(=O)[C@@H]2CCCN2C(=O)[C@H](CC2(C)CC2)NC(=O)[C@H](CO)NC(=O)[C@H](CCCNC(=N)N)NC(=O)[C@H](CO)NC1=O) [Example 197: ((N-Me)G)-IC+SRS-((2S)-2-amino-3-(1-methylcyclopropyl)propanoic acid)-PPI-(Pen)+IP-NH2] | 100 nM | 15 nM
A[Nva]CSRS[tBuAla]PPI[Pen]IPD-NH2 (disulfide 3-11; N-terminus assumed; SMILES CCC[C@H](NC(=O)[C@H](C)N)C(=O)N[C@H]1CSSC(C)(C)[C@@H](C(=O)N[C@H](C(=O)N2CCC[C@H]2C(=O)N[C@@H](CC(=O)O)C(N)=O)[C@@H](C)CC)NC(=O)[C@H]([C@@H](C)CC)NC(=O)[C@@H]2CCCN2C(=O)[C@@H]2CCCN2C(=O)[C@H](CC(C)(C)C)NC(=O)[C@H](CO)NC(=O)[C@H](CCCNC(=N)N)NC(=O)[C@H](CO)NC1=O) [Example 199: A-(Nva)-C+SRS-((tBu)A)-PPI-(Pen)+IPD-NH2] | 180 nM | 49 nM
[Sar]ICSRS[tBuAla]PPI[Pen]IP-{PEG2-NH2} (disulfide 3-11) [Example 207: ((N-Me)G)-IC+SRS-((tBu)A)-PPI-(Pen)+IP-(PEG1(10 atoms))-NH2] | 43 nM | 33.6 nM
[Ac4c]ICSRS[tBuAla]PPI[Pen]I-NH2 (disulfide 3-11; N-terminus assumed; SMILES CC[C@H](C)[C@H](NC(=O)[C@H]1NC(=O)[C@H]([C@@H](C)CC)NC(=O)[C@@H]2CCCN2C(=O)[C@@H]2CCCN2C(=O)[C@H](CC(C)(C)C)NC(=O)[C@H](CO)NC(=O)[C@H](CCCNC(=N)N)NC(=O)[C@H](CO)NC(=O)[C@@H](NC(=O)[C@@H](NC(=O)C2(N)CCC2)[C@@H](C)CC)CSSC1(C)C)C(N)=O) [Example 208: (ACBA)-IC+SRS-((tBu)A)-PPI-(Pen)+I-NH2] | 61 nM | 8.6 nM
FICSRS[tBuAla]PPI[Pen]IPD-NH2 (disulfide 3-11; N-terminus assumed; SMILES CC[C@H](C)[C@H](NC(=O)[C@@H](N)Cc1ccccc1)C(=O)N[C@H]1CSSC(C)(C)[C@@H](C(=O)N[C@H](C(=O)N2CCC[C@H]2C(=O)N[C@@H](CC(=O)O)C(N)=O)[C@@H](C)CC)NC(=O)[C@H]([C@@H](C)CC)NC(=O)[C@@H]2CCCN2C(=O)[C@@H]2CCCN2C(=O)[C@H](CC(C)(C)C)NC(=O)[C@H](CO)NC(=O)[C@H](CCCNC(=N)N)NC(=O)[C@H](CO)NC1=O) [Example 211: FIC+SRS-((tBu)A)-PPI-(Pen)+IPD-NH2] | 75 nM | 23 nM
